Results as given in publication PMC12072466, “Mechanisms of Viral DNA Replication of Human Papillomavirus: E2 Protein-Dependent Recruitment of E1 DNA Helicase to the Origin of DNA Replication” (International Journal of Molecular Sciences, 2025).

Assays:
E2 [1] = target: T1, E2 (Human papillomavirus 16 (Methods 4.2; …, UniProt P03120 1-365); assay: EMSA; 4 mM Mg2+, 1.4 mM ATP; E2 2.8 nM; C1* complex, E2 dimer; settings: protein: recombinant; tags: C-terminal 10xHis; chain copies: 2; label: 5' 32P; blunt
E2 [2] = target: T1, E2; assay: EMSA; 4 mM Mg2+, 1.4 mM ATP; E2 2.8 nM; C1* complex, two E2 dimers; settings: protein: recombinant; tags: C-terminal 10xHis; chain copies: 2; label: 5' 32P; blunt
E1 helicase;E2 [3] = target: T2, E1 helicase;E2 (Human papillomavirus 16 (Methods 4.2; …, UniProt P03114;P03120 1-649;1-365, |); assay: EMSA; 4 mM Mg2+, 1.4 mM ATP; E2 2.8 nM, E1 43-347 nM; C2* and C3* complexes; settings: protein: recombinant;recombinant; tags: C-terminal 10xHis;C-terminal 10xHis; chain copies: 6;2; label: 5' 32P; blunt
E1 helicase;E2 [4] = target: T2, E1 helicase;E2; assay: EMSA; 4 mM Mg2+, 1.4 mM ATP; E2 2.8 nM, E1 43-347 nM; C3* complex even at low E1; settings: protein: recombinant;recombinant; tags: C-terminal 10xHis;C-terminal 10xHis; chain copies: 6;2; label: 5' 32P; blunt
[5] = target: the molecule itself; assay: dynamic light scattering; purified E1 in solution; oligomeric state; conditions not shown (Figure S3)

T1 sequence (P03120 whole entry): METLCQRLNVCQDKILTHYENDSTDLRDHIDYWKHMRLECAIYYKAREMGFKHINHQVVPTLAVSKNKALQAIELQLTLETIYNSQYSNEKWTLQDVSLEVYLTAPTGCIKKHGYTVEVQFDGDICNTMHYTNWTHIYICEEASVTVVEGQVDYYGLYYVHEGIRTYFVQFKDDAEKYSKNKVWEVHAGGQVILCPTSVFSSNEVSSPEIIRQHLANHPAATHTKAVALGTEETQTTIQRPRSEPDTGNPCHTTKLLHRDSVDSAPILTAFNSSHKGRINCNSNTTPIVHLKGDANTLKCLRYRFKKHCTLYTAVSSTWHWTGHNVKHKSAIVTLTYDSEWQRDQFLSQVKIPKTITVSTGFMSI
T2 sequence (P03120 whole entry, one chain of several): as the sequence (P03120 whole entry) above

B1: Oligo III, E2 BS (24 bp) (dsDNA)
DNA 1: CTTGCAACCGTTTTCGGTTGCCCT
DNA 2: AGGGCAACCGAAAACGGTTGCAAG
- binding result (E2 [1]): binds

B2: Oligo I, E2 BS1+2+E1BS (124 bp) (dsDNA)
DNA 1: GTAACCCACACCCTACATATTTCCTTCTTATACTTAATAACAATCTTAGTTTAAAAAAGAGGAGGGACCGAAAACGGTTCAACCGAAAACGGTTATATATAAACCAGCCCAAAAAATTAGCAGA
DNA 2: TCTGCTAATTTTTTGGGCTGGTTTATATATAACCGTTTTCGGTTGAACCGTTTTCGGTCCCTCCTCTTTTTTAAACTAAGATTGTTATTAAGTATAAGAAGGAAATATGTAGGGTGTGGGTTAC
- binding result (E2 [2]): binds
- binding result (E1 helicase;E2 [3]): binds

B3: Oligo II, E2 BS1+2 (50 bp) (dsDNA)
DNA 1: GGCGGGACCGAAAACGGTTCAACCGAAAACGGTTATATATAAACCAGCCC
DNA 2: GGGCTGGTTTATATATAACCGTTTTCGGTTGAACCGTTTTCGGTCCCGCC
- binding result (E1 helicase;E2 [4]): binds

B4: full-length HPV16 E1 helicase (enzyme)
chain: MADPAGTNGEEGTGCNGWFYVEAVVEKKTGDAISDDENENDSDTGEDLVDFIVNDNDYLTQAETETAHALFTAQEAKQHRDAVQVLKRKYLVSPLSDISGCVDNNISPRLKAICIEKQSRAAKRRLFESEDSGYGNTEVETQQMLQVEGRHETETPCSQYSGGSGGGCSQYSSGSGGEGVSERHTICQTPLTNILNVLKTSNAKAAMLAKFKELYGVSFSELVRPFKSNKSTCCDWCIAAFGLTPSIADSIKTLLQQYCLYLHIQSLACSWGMVVLLLVRYKCGKNRETIEKLLSKLLCVSPMCMMIEPPKLRSTAAALYWYKTGISNISEVYGDTPEWIQRQTVLQHSFNDCTFELSQMVQWAYDNDIVDDSEIAYKYAQLADTNSNASAFLKSNSQAKIVKDCATMCRHYKRAEKKQMSMSQWIKYRCDRVDDGGDWKQIVMFLRYQGVEFMSFLTALKRFLQGIPKKNCILLYGAANTGKSLFGMSLMKFLQGSVICFVNSKSHFWLQPLADAKIGMLDDATVPCWNYIDDNLRNALDGNLVSMDVKHRPLVQLKCPPLLITSNINAGTDSRWPYLHNRLVVFTFPNEFPFDENGNPVYELNDKNWKSFFSRTWSRLSLHEDEDKENDGDSLPTFKCVSGQNTNTL
notes: Replication protein E1 (DNA helicase) of human papillomavirus type 16, full-length, codon-optimized synthetic gene in pET28a; about 75 kDa on SDS-PAGE; Hexamer in solution by dynamic light scattering; also called HPV E1; E1 DNA helicase
- stoichiometry N [5]: 6
